Assay results taken from publication PMC2760858.
Values belong to the substance of their own block, whether it stands above or below them.

Columns and labels:
hERK1-GFP (human) = hERK1-GFP (human) (UniProt P27361); assay: FRET or BRET; acceptor photobleaching FRET in fixed HeLa cells transfected with hERK1-GFP; partner labelled with primary antibody and Cy3-conjugated secondary antibody; GFP/Cy3 pair
[1] = target: endogenous phospho-ERK1/2 (human (endogenous in HeLa)) (UniProt P27361); assay: FRET or BRET; acceptor photobleaching FRET in fixed untransfected HeLa cells; endogenous phospho-ERK1/2 and partner labelled with primary antibodies and Cy3- or Cy5-conjugated secondary antibodies; Cy3/Cy5 pair
[2] = target: GST-hERK1 recombinant protein (human) (UniProt P27361); assay: non-reducing SDS-PAGE after pull-down, band identified by MALDI-TOF-MS; GST-hERK1 on GSH-agarose incubated with HeLa mitochondrial extract, high stringency; electrophoresis in the absence of β-ME or DTT; band of MW ~130

- FRET efficiency (nuclei) (hERK1-GFP (human)): 0.3
- mean FRET efficiency [1]: 0.17
Substance: Histone H2A (from UniProt P0C0S8 1-130) (natural protein)

- mean FRET efficiency (cytoplasm) (hERK1-GFP (human)): 0.3
Substance: Porin 31HL (VDAC1), voltage-dependent anion channel 1 (from UniProt P21796 1-283) (natural protein)

- FRET efficiency (nuclei) (hERK1-GFP (human)): 0.2
Substance: Histone H4 (from UniProt P62805 1-103) (natural protein)

- stoichiometry N [2]: 2
Substance: GST-hERK1 recombinant protein (from UniProt P27361 1-379) (enzyme)
